The text below walks through data of patent US20130336885A1 (Genentech, published 2013).

Usually Kd stands for the constant that tells how readily two partners part at equilibrium. The term koff denotes the first-order rate constant of dissociation. A high value points to fast dissociation. What is called kon is the second-order rate constant of association.

For experiment [1], the target named is T1, human LgR5 ECD (amino acids 22-557 fused to His-Fc expressed in a baculovirus system, or amino acids 22-558 … (human, UniProt O75473 22-557)).
T1 construct: not shown: C-terminal His-tagged Fc
T1 sequence: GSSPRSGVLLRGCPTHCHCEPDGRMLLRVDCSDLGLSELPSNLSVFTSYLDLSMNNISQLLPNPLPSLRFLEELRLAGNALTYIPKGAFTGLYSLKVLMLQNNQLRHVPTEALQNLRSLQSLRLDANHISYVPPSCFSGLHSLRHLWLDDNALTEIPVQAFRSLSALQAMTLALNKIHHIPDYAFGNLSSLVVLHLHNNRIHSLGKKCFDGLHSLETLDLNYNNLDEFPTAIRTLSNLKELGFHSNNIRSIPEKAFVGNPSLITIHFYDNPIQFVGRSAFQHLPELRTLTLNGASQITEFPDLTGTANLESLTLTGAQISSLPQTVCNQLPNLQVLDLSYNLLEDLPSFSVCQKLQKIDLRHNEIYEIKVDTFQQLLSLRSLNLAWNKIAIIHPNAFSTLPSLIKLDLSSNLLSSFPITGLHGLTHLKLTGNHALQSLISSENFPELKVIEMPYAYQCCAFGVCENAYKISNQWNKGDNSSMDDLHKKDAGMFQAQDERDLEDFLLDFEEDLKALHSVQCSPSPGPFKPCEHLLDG
Briefly: SPR (BIAcore-3000), antibody captured by anti-human Fc, LgR5 ECD-Fc injected. Background: SPR reads the build-up and loss of mass on a sensor chip optically.

Experiment [2] addresses T1, human LgR5 ECD (amino acids 22-557 …). Briefly: BIAcore-3000 SPR, IgG captured on goat anti-human Fc, human LgR5 ECD-Fc injected, 25 C, 1:1 Langmuir model. As for the experimental part: The affinity of each 8E11 IgG variant for human LgR5 was determined by surface plasmon resonance using a BIAcore™-3000. BIAcore™ research grade CMS chips were activated with 1-ethyl-3-(3-dimethylaminopropyl) carbodiimide (EDC) and N-hydroxysuccinimide (NHS) reagents according to the supplier's instructions. Goat anti-human Fc IgGs were coupled to the chips to achieve approximately 10,000 response units (RU) in each flow cell. Unreacted coupling groups were blocked with 1M ethanolamine. For kinetics measurements, anti-LGR5 antibodies were captured to achieve approximately 300 RU. Two-fold serial dilutions of human LgR5ECD (amino acids 22-557 fused to His-Fc expressed in a baculovirus system, or amino acids 22-558 fused to Fc expressed from CHO cells; 125 nM to 0.49 nM) were injected in HBS-P buffer (0.01M HEPES pH7.4, 0.15M NaCl, 0.005% surfactant P20) at 25° C. with a flow rate of 30 μl/min. Association rates (kₒₙ) and dissociation rates (koff) were calculated using a 1:1 Langmuir binding model (BIAcore™ Evaluation Software version 3.2). The equilibrium dissociation constant (Kd) was calculated as the ratio koff/kₒₙ.

In experiment [3] the target is T2, gD epitope-tagged mouse LgR5 expressed on stably transfected 293 cells (mouse, UniProt Q9Z1P4 22-907).
T2 construct: also called gD-tagged mouse LgR5
T2 sequence: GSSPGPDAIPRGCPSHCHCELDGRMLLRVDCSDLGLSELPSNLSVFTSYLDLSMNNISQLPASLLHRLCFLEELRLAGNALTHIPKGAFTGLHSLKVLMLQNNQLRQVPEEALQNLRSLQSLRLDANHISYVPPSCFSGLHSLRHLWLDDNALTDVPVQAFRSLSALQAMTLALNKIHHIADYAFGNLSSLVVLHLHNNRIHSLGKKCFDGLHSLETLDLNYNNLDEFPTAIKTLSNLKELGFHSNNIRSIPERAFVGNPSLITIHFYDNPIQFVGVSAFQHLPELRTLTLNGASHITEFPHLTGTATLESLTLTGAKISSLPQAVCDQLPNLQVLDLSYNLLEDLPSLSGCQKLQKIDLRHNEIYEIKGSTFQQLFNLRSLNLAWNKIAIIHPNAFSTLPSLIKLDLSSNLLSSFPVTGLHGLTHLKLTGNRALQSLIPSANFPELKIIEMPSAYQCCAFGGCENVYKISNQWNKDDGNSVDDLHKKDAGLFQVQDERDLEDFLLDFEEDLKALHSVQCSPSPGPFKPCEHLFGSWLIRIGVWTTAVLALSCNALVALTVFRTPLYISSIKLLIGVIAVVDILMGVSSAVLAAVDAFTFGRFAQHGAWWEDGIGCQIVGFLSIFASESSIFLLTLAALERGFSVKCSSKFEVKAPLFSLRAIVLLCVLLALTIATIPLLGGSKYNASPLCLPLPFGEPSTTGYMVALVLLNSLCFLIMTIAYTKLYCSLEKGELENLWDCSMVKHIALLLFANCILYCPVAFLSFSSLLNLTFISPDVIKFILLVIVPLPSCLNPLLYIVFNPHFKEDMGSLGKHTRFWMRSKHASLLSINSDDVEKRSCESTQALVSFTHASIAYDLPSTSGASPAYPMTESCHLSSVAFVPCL
Briefly: Scatchard analysis, 125I-labelled antibody competed by unlabelled antibody on stably transfected 293 cells. On the procedure: Scatchard analysis was performed following standard procedures (Holmes et al., Science 256:1205-1210 (1992)) to determine the relative binding affinities of YW353, ch8E11 and hu8E11v2 antibodies.
Anti-LgrS antibodies were [I¹²⁵] labeled using the indirect Iodogen method. […] Competition assay mixtures of 50 μL volume containing a fixed concentration of [I¹²⁵] labeled antibody and decreasing concentrations of serially diluted, unlabeled antibody were placed into 96-well plates. 293 cells stably expression human, rat, or mouse LgrS were cultured in growth media at 37° C. in 5% CO₂. Cells were detached from the flask using Sigma Cell Dissociation Solution and were washed with binding buffer, which consisted of Dulbecco's Modified Eagle Medium (DMEM) with 2% fetal bovine serum (FBS), 50 mM HEPES (pH 7.2) and 0.1% sodium azide. The washed cells were added to the 96 well plates at a density of 250,000 cells in 0.2 mL of binding buffer. The final concentration of the labeled antibody in each well was […]. The final concentration of the unlabeled antibody in the competition assay ranged from 500 nM through ten 2-fold diluation steps to a 0 nM buffer-only assay. Competition assays were carried out in triplicate. Competition assays were incubated for 2 hours at room temperature. After the 2-hour incubation, the competition assays were transferred to a Millipore Multiscreen filter plate (Billerica, Mass.) and washed 4 times with binding buffer to separate the free from bound [I¹²⁵] labeled antibody. The filters were counted on a Wallac Wizard 1470 gamma counter (PerkinElmer Life and Analytical Sciences Inc.; Wellesley, Mass.). The binding data was evaluated using NewLigand software (Genentech), which uses the fitting algorithm of Munson and Robard to determine the binding affinity of the antibody (Munson and Robard 1980)

B1: human antibody YW353 (antibody, human IgG1, kappa, V domains shown)
VH: EVQLVESGGGLVQPGGSLRLSCAASGFTFTSYSISWVRQAPGKGLEWVAEIYPPGGYTDYADSVKGRFTISADTSKNTAYLQMNSLRAEDTAVYYCAKARLFFDYWGQGTLVTVSS
VL: DIQMTQSPSSLSASVGDRVTITCRASQDVSTAVAWYQQKPGKAPKLLIYSASFLYSGVPSRFSGSGSGTDFTLTISSLQPEDFATYYCQQSYTTPPTFGQGTKVEIKR
notes: also called huYW353
For B1, in experiment [1], the equilibrium dissociation constant (Kd) is 1.6 nM.

B2: humanized monoclonal antibody 8E11.v2 (antibody, human IgG1, kappa, V domains shown)
VH: EVQLVQSGAEVKKPGASVKVSCKASGYTFSAYWIEWVRQAPGQGLEWIGEILPGSDSTDYNEKFKVRATFTSDTSTSTVYLELSSLRSEDTAVYYCARGGHYGSLDYWGQGTLVTVSS
VL: DIVMTQSPDSLAVSLGERATINCRASESVDNYGNSFMHWYQQKPGQPPKLLIYLASNLESGVPDRFSGSGSGTDFTLTISSLQAEDVAVYYCQQNYEDPFTFGQGTKVEIKR
notes: It was assessed as an IgG; also called hu8E11.v2; hu8E11v2
For the molecule B2, in experiment [2], the affinity, expressed as Kd, was 3.1 nM; the koff came to 0.000853 s⁻¹; the kon amounted to 279000 M⁻¹ s⁻¹. Besides, the Kd in experiment [3] is 0.5 nM.

B3: chimeric monoclonal antibody 8E11 (antibody, human IgG1, V domains shown)
VH: QVQLQQSGTELMKPGASVKISCKATGYTFSAYWIEWIKQRPGHGLEWIGEILPGSDSTDYNEKFKVKATFSSDTSSNTVYIQLNSLTYEDSAVYYCARGGHYGSLDYWGQGTTLKVSS
VL: NIVLTQSPASLAVSLGQRATISCRASESVDNYGNSFMHWYQQKPGQPPKLLIYLASNLESGVPARFSGSGSRTDFTLTIDPVEADDAATYYCQQNYEDPFTFGSGTKVEIKR
notes: also called ch8E11; chimeric 8E11
For B3, in experiment [1], the Kd worked out at 2.4 nM. Besides, in experiment [2], binding was characterised by a dissociation constant (Kd) of 3 nM, the koff was 0.00064 s⁻¹ and the kon amounted to 210000 M⁻¹ s⁻¹. Also, in experiment [3], the Kd is 0.2 nM.
